Tests used:
[1] = Biodistribution in healthy rats; format: in vivo, Sprague-Dawley rats; details: for Biodistribution: Blood / Biodistribution: Heart / Biodistribution: Intestine / Biodistribution: Kidneys / Biodistribution: Liver / Biodistribution: Lungs / Biodistribution: Muscle / Biodistribution: Spleen / Biodistribution: Stomach / Biodistribution: Urine: healthy rats
Method: (§1) Before injection, ^99mTc complexes were purified using a reversed-phase C18 Sep-Pack cartridge to remove the excess of unlabeled ligands. After purification, the activity recovered was further diluted with PBS to obtain a final solution that is <0.5% in EtOH content. The RCP and the stability of the purified complexes were evaluated prior to in vivo administration and for the succeeding 18 h.
Biodistribution in healthy rats. Biodistribution in healthy rats was performed on complex 1, complex 2 and complex 9 in order to evaluate their pharmacokinetic profile and elimination pathways as well as their resistance to in vivo metabolism. Female Sprague-Dawley rats weighing 180-200 g were anesthetized with an intramuscular injection of a mixture of Zoletil (40 mg/kg) and xylazine (2 mg/kg). A jugular vein was surgically exposed and 100 μl (300-370 kBq) of the solution containing the selected [^99mTc(N)(PNP3OH)]-compound was injected. The rats (n=3) were scarified by cervical dislocation at different times after injection. The blood was withdrawn from the heart with a syringe immediately after death and quantified. Organs were excised, rinsed in saline, weighed, and the activity was counted in a Nal well counter.

Metabolites in the urine = format: in vivo, rats; details: urine at 2 and 4 h p.i.
Method: Metabolites in the Urine.
At 2 and 4 h p.i. the urine was collected directly from the bladder and analyzed by HPLC (FIG. 12).

[2] = Stability in RPMI1640 cell culture medium; format: physicochemical
Method: Before the cell experiments, the stability of the purified complex 9 in RPMI1640 medium was evaluated. The radiolabeled peptide was found stable. Data were compared with those of the ^99mTc-HYNIC-RGDfK labeled compound produced according to literature (Decristoforo C, Santos I, Pietzsch H J, Kuenstler J U, Duatti A, Smith C J, Rey A, Alberto R, Von Guggenberg E, Haubner R. Comparison of in vitro and in vivo properties of [99mTc]cRGD peptides labeled using different novel Tc-cores.Q J Nucl Med Mol Imaging. (2007), 51, 33-41).
Thus, to a glass test tube containing 990 μL of cell culture media was added 10 μL of a solution containing 10 μCi of complex 9. The mixture was vortexed and incubated at 37° C. for 2 h. At 30 min, 1 and 2 h, 100 μl of the reaction mixture were withdrawn and analyzed by HPLC chromatography. The radiochemical purity (RCP) of the complexes was found >90%.

αvβ3 integrins = format: in vivo, NOD/SCID mice; details: 120 min post injection
Method: as §1
Distribution in Tumor Bearing Mice.
Tumor uptake studies were performed on complex 9 in NOD/SCID mice to determine the effective capability of the complex to detect in vivo endogenously expressed αvβ3 integrins. For induction of tumor xenografts, M21 (αvβ3 positive) and M21L (αvβ3 negative) cells were subcutaneously injected at a concentration of 5×10^6 cells/mouse and allowed to grow until tumor of 3 mm is palpable. The solution containing the purified radiolabeled peptide (15 μCi/200 μL) was injected intravenously into the tail vein. The animals (n=5) were sacrificed by cervical dislocation at 2 h post injection. Tumors and other tissues (blood, heart, lung, liver, kidneys, stomach, intestine, muscle) were removed, weighed, and the activity was counted in a Nal well counter. The results were expressed as the percentage of injected activity per gram of tissue (% IA/g) and tumor to organ ratios were calculated.

Q: With “[^99mTc(N)(PNP3OH)(Cys-cRGDfK)]^+ [Complex 9]” as the substance, how does the “Pharmacokinetic profile: blood clearance” value ([1]; healthy animals, within the first 60 min p.i.) read?
A: rapid blood clearance

Q: And the “Biodistribution: Blood” value ([1]; 30 min)?
A: 0.46 ± 0.17 % IA/g

Q: What about the “Biodistribution: Heart” value ([1]; 30 min) of the same substance?
A: 0.25 ± 0.06 % IA/g

Q: And the “Biodistribution: Intestine” value ([1]; 30 min)?
A: 1.29 ± 0.13 % IA/g

Q: What about the “Biodistribution: Kidneys” value ([1]; 30 min) of the same substance?
A: 4.50 ± 1.59 % IA/g

Q: And the “Biodistribution: Liver” value ([1]; 30 min)?
A: 0.90 ± 0.16 % IA/g

Q: What about the “Biodistribution: Lungs” value ([1]; 30 min) of the same substance?
A: 0.62 ± 0.15 % IA/g

Q: And the “Biodistribution: Muscle” value ([1]; 30 min)?
A: 0.17 ± 0.01 % IA/g

Q: What about the “Biodistribution: Spleen” value ([1]; 30 min) of the same substance?
A: 0.41 ± 0.10 % IA/g

Q: And the “Biodistribution: Stomach” value ([1]; 30 min)?
A: 0.62 ± 0.14 % IA/g

Q: And the “Biodistribution: Urine” value ([1]; 30 min)?
A: 28.98 ± 7.22 % IA/g

Q: What about the “Biodistribution: Blood” value ([1]; 60 min) of the same substance?
A: 0.25 ± 0.03 % IA/g

Q: What about the “Biodistribution: Heart” value ([1]; 60 min) of the same substance?
A: 0.15 ± 0.00 % IA/g

Q: What about the “Biodistribution: Intestine” value ([1]; 60 min) of the same substance?
A: 1.95 ± 0.97 % IA/g

Q: And the “Biodistribution: Kidneys” value ([1]; 60 min)?
A: 4.20 ± 0.35 % IA/g

Q: And the “Biodistribution: Liver” value ([1]; 60 min)?
A: 0.80 ± 0.06 % IA/g

Q: And the “Biodistribution: Lungs” value ([1]; 60 min)?
A: 0.49 ± 0.01 % IA/g

Q: And the “Biodistribution: Muscle” value ([1]; 60 min)?
A: 0.13 ± 0.01 % IA/g

Q: And the “Biodistribution: Spleen” value ([1]; 60 min)?
A: 0.39 ± 0.04 % IA/g

Q: And the “Biodistribution: Stomach” value ([1]; 60 min)?
A: 0.64 ± 0.09 % IA/g

Q: What about the “Biodistribution: Urine” value ([1]; 60 min) of the same substance?
A: 28.16 ± 2.49 % IA/g

Q: What about the “Biodistribution: Blood” value ([1]; 120 min) of the same substance?
A: 0.16 ± 0.11 % IA/g

Q: And the “Biodistribution: Heart” value ([1]; 120 min)?
A: 0.13 ± 0.05 % IA/g

Q: And the “Biodistribution: Intestine” value ([1]; 120 min)?
A: 3.76 ± 0.17 % IA/g

Q: And the “Biodistribution: Kidneys” value ([1]; 120 min)?
A: 3.13 ± 1.69 % IA/g

Q: What about the “Biodistribution: Liver” value ([1]; 120 min) of the same substance?
A: 0.75 ± 0.19 % IA/g

Q: And the “Biodistribution: Lungs” value ([1]; 120 min)?
A: 0.37 ± 0.15 % IA/g

Q: And the “Biodistribution: Muscle” value ([1]; 120 min)?
A: 0.12 ± 0.05 % IA/g

Q: And the “Biodistribution: Spleen” value ([1]; 120 min)?
A: 0.34 ± 0.05 % IA/g

Q: And the “Biodistribution: Stomach” value ([1]; 120 min)?
A: 0.62 ± 0.09 % IA/g

Q: What about the “Biodistribution: Urine” value ([1]; 120 min) of the same substance?
A: 34.58 ± 10.09 % IA/g

Q: And the “Biodistribution: Blood” value ([1]; 240 min)?
A: 0.12 ± 0.01 % IA/g

Q: And the “Biodistribution: Heart” value ([1]; 240 min)?
A: 0.22 ± 0.13 % IA/g

Q: And the “Biodistribution: Intestine” value ([1]; 240 min)?
A: 3.94 ± 0.91 % IA/g

Q: And the “Biodistribution: Kidneys” value ([1]; 240 min)?
A: 7.24 ± 0.55 % IA/g

Q: What about the “Biodistribution: Liver” value ([1]; 240 min) of the same substance?
A: 0.88 ± 0.04 % IA/g

Q: And the “Biodistribution: Lungs” value ([1]; 240 min)?
A: 0.42 ± 0.06 % IA/g

Q: And the “Biodistribution: Muscle” value ([1]; 240 min)?
A: 0.11 ± 0.00 % IA/g

Q: What about the “Biodistribution: Spleen” value ([1]; 240 min) of the same substance?
A: 0.47 ± 0.04 % IA/g

Q: And the “Biodistribution: Stomach” value ([1]; 240 min)?
A: 0.61 ± 0.11 % IA/g

Q: What about the “Biodistribution: Urine” value ([1]; 240 min) of the same substance?
A: 24.91 ± 1.00 % IA/g

Q: And the “In vivo metabolism (urine HPLC, FIG. 12)” value (Metabolites in the urine)?
A: remained stably incorporated into the structure of the final complex

Q: What about the “Stability in RPMI1640 medium” value [2] of the same substance?
A: found stable

Q: And the “Radiochemical purity (RCP) in cell culture media” value ([2]; 37° C., 30 min, 1 and 2 h)?
A: > 90%

Q: And the “Tumor uptake: M21” value (αvβ3 integrins; M21 (αvβ3 positive) tumor, mice)?
A: 4.38±0.69 % IA/g

Q: What about the “Tumor uptake: M21L” value (αvβ3 integrins; M21L (αvβ3 negative) tumor, mice) of the same substance?
A: 1.05 ± 0.62 % IA/g

Q: And the “Biodistribution: Blood” value (αvβ3 integrins; tumor bearing mice)?
A: 0.03 ± 0.01 % IA/g

Q: And the “Biodistribution: Heart” value (αvβ3 integrins; tumor bearing mice)?
A: 0.44 ± 0.09 % IA/g

Q: And the “Biodistribution: Intestine” value (αvβ3 integrins; tumor bearing mice)?
A: 5.05 ± 1.24 % IA/g

Q: What about the “Biodistribution: Kidney” value (αvβ3 integrins; tumor bearing mice) of the same substance?
A: 3.19 ± 0.18 % IA/g

Q: And the “Biodistribution: Liver” value (αvβ3 integrins; tumor bearing mice)?
A: 3.87 ± 0.81 % IA/g

Q: And the “Biodistribution: Lungs” value (αvβ3 integrins; tumor bearing mice)?
A: 1.22 ± 0.25 % IA/g

Q: And the “Biodistribution: Muscle” value (αvβ3 integrins; tumor bearing mice)?
A: 0.20 ± 0.07 % IA/g

Q: What about the “Biodistribution: Spleen” value (αvβ3 integrins; tumor bearing mice) of the same substance?
A: 1.51 ± 0.22 % IA/g

Q: And the “Biodistribution: Stomach” value (αvβ3 integrins; tumor bearing mice)?
A: 0.96 ± 0.20 % IA/g

Q: And the M21/blood ratio (αvβ3 integrins; tumor bearing mice)?
A: 146

Q: And the M21/liver ratio (αvβ3 integrins; tumor bearing mice)?
A: 1.13

Q: What about the M21/lung ratio (αvβ3 integrins; tumor bearing mice) of the same substance?
A: 3.59

Q: What about the M21/muscle ratio (αvβ3 integrins; tumor bearing mice) of the same substance?
A: 21.9

From patent US11160886B2, “Method for labeling of sensitive and thermosensitive targeting biomolecules with technetium based compounds” (BRACCO IMAGING SPA, priority 2016, dated 2021)
